Data reported in US20240270821A1, “GIP/GLP1/GCG TRI-RECEPTOR AGONISTS AND USES THEREOF” (priority 2023, published 2024).
Starred links: 1 amine or outer side, 2 acyl side, 3 side chain; linkers in the order of their positions; H or OH if unused. Non-standard residues stand in square brackets, D forms with d. Groups on a side chain read outwards from the residue. No end group written: not given here. *: point of attachment. C18 diacid = O=C(O)CCCCCCCCCCCCCCCCC(=O)*; γGlu = O=C(O)[C@H](CCC(=O)[*:2])N[*:1]; 4Pal = N[C@@H](Cc1ccncc1)C(=O)O; αMeL = CC(C)C[C@](C)(N)C(=O)O; Dab = NCC[C@H](N)C(=O)O; AEEA = NCCOCCOCC(=O)O; Aib = CC(C)(N)C(=O)O

T1: human GIP receptor (human) (UniProt P48546)
T1 sequence (looked up): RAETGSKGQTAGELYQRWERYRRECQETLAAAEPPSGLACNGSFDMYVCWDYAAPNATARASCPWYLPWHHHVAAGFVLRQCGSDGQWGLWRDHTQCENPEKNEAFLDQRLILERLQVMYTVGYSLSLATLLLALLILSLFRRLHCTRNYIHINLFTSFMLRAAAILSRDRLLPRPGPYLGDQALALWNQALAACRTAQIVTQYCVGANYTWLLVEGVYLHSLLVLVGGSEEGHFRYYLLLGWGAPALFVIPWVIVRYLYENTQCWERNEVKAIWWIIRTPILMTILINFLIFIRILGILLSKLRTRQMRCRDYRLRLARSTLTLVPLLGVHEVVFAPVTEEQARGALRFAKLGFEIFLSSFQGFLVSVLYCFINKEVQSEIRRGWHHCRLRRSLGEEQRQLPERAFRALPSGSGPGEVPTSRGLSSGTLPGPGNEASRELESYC

B1: Example 222 (peptide)
chain: YXQGTFTSDXSXXLDKKAQXAFIEYLIEXGESSGAPPPSGE
modifications: synthetic construct; SITE 2: note = 2-Aminoisobutyric Acid; SITE 10: note = 3-(4-Pyridyl)-L-alanine; SITE 12: note = L-ornithine; SITE 13: note = alpha-methyl-leucine; SITE 17: note = Lysine is chemically modified through conjugation of the epsilon-amino group of the Lysine side chain with (2-[2-(2-
B2: Example 224 (peptide)
chain: YXQGTFTSDXSRXLDKKAQXAFIEYLIEXGESSGAPPPSGS
modifications: synthetic construct; SITE 2: note = 2-Aminoisobutyric Acid; SITE 10: note = 3-(4-Pyridyl)-L-alanine; SITE 13: note = alpha-methyl-leucine; SITE 17: note = Lysine is chemically modified through conjugation of the epsilon-amino group of the Lysine side chain with (2-[2-(2-Amino-ethoxy)-ethoxy]-acetyl)
B3: Example 204 (peptide)
chain: YXQGTFTSDFSXXLDKKAQXAFIEYLLEAGPSSGAPPPSGT
modifications: not fully specified; synthetic construct; SITE 2: note = 2-Aminoisobutyric Acid; SITE 12: note = L-ornithine; SITE 13: note = alpha-methyl-leucine; SITE 17: note = Lysine is chemically modified through conjugation of the epsilon-amino group of the Lysine side chain with (gamma-Glu)2-CO-(CH2)16-CO2H; SITE 20: note = 2-Am
B4: Example 212 (peptide)
chain: YXQGTFTSDFSXXLDKKAQXAFIEYLLEAGPSSGAPPPSGS
modifications: C-terminal amide; synthetic construct; SITE 2: note = 2-Aminoisobutyric Acid; SITE 12: note = L-ornithine; SITE 13: note = alpha-methyl-leucine; SITE 17: note = Lysine is chemically modified through conjugation of the epsilon-amino group of the Lysine side chain with (2-[2-(2-Amino-ethoxy)-ethoxy]-acetyl)-(gamma-Glu)
B5: Example 187 (peptide)
chain: YXQGTFTSDXSRXLDKKAQXAFIEYLIEXGESSGAPPPSGS
modifications: synthetic construct; SITE 2: note = 2-Aminoisobutyric Acid; SITE 10: note = 3-(4-Pyridyl)-L-alanine; SITE 13: note = alpha-methyl-leucine; SITE 17: note = Lysine is chemically modified through conjugation of the epsilon-amino group of the Lysine side chain with (2-[2-(2-Amino-ethoxy)-ethoxy]-acetyl)
B6: Example 192 (peptide)
chain: YXQGTFTSDFSXXLDKKAQXAFIEYLLEXGPSSGAPPPSGS
modifications: synthetic construct; SITE 2: note = 2-Aminoisobutyric Acid; SITE 12: note = L-ornithine; SITE 13: note = alpha-methyl-leucine; SITE 17: note = Lysine is chemically modified through conjugation of the epsilon-amino group of the Lysine side chain with (2-[2-(2-Amino-ethoxy)-ethoxy]-acetyl)-(gamma-Glu)
B7: Example 209 (peptide)
chain: YXQGTFTSDFSXXLDKKAQXAFIEYLLEAGPSSGAPPPSGS
modifications: synthetic construct; SITE 2: note = 2-Aminoisobutyric Acid; SITE 12: note = L-ornithine; SITE 13: note = alpha-methyl-leucine; SITE 17: note = Lysine is chemically modified through conjugation of the epsilon-amino group of the Lysine side chain with (2-[2-(2-Amino-ethoxy)-ethoxy]-acetyl)-(gamma-Glu)
B8: Example 186 (peptide)
chain: YXQGTFTSDFSXXLDKKAQXAFIEYLLEXGHSSGAPPPSGE
modifications: synthetic construct; SITE 2: note = 2-Aminoisobutyric Acid; SITE 12: note = L-ornithine; SITE 13: note = alpha-methyl-leucine; SITE 17: note = Lysine is chemically modified through conjugation of the epsilon-amino group of the Lysine side chain with (2-[2-(2-Amino-ethoxy)-ethoxy]-acetyl)2-(gamma-Glu)
B9: Example 230 (peptide)
chain: YXQGTFTSDFSRXLDKKAQXAFIEYLIEXGESSGAPPPSGS
modifications: synthetic construct; SITE 2: note = 2-Aminoisobutyric Acid; SITE 13: note = alpha-methyl-leucine; SITE 17: note = Lysine is chemically modified through conjugation of the epsilon-amino group of the Lysine side chain with (2-[2-(2-Amino-ethoxy)-ethoxy]-acetyl)-(gamma-Glu)-CO-(CH2) 16-CO2H; SITE 20: n
B10: Example 231 (peptide)
chain: YXQGTFTSDFSRXLDKKAQXAFIEYLIEXGESSGAPPPSGE
modifications: synthetic construct; SITE 2: note = 2-Aminoisobutyric Acid; SITE 13: note = alpha-methyl-leucine; SITE 17: note = Lysine is chemically modified through conjugation of the epsilon-amino group of the Lysine side chain with (2-[2-(2-Amino-ethoxy)-ethoxy]-acetyl)-(gamma-Glu)-CO-(CH2) 16-CO2H; SITE 20: n
B11: Example 226 (peptide)
chain: YXQGTFTSDXSQXLDKKAQXAFIEYLIEXGESSGAPPPSGS
modifications: synthetic construct; SITE 2: note = 2-Aminoisobutyric Acid; SITE 10: note = 3-(4-Pyridyl)-L-alanine; SITE 13: note = alpha-methyl-leucine; SITE 17: note = Lysine is chemically modified through conjugation of the epsilon-amino group of the Lysine side chain with (2-[2-(2-Amino-ethoxy)-ethoxy]-acetyl)

Assays:
Test in all cases: cell-based or functional assay
[1] = molecular target: human GLP-1R (SNAP-GLP-1R expressed in HEK293 cells) (human) (UniProt P43220)
Sequence of human GLP-1R (SNAP-GLP-1R expressed in HEK293 cells) (human) (P43220 24-463): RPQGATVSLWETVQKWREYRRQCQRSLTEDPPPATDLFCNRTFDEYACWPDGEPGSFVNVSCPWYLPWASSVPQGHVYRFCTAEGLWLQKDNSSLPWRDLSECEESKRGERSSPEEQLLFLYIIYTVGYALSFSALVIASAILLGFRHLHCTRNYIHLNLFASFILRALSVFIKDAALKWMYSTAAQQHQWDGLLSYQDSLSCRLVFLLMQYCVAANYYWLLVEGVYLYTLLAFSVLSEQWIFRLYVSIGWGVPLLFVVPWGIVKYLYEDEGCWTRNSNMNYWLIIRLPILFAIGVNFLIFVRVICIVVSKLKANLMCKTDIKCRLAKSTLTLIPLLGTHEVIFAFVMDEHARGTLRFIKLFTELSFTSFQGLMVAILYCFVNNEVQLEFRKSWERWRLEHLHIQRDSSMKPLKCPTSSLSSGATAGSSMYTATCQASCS

[2] = molecular target: T1, human GIP receptor (human)
[3] = molecular target: hGLP-1R (Homo sapiens, UniProt P43220)
Sequence of hGLP-1R (P43220 24-463): as above

[4] = molecular target: human glucagon receptor (human) (UniProt P47871)
Sequence of human glucagon receptor (human) (P47871 26-477): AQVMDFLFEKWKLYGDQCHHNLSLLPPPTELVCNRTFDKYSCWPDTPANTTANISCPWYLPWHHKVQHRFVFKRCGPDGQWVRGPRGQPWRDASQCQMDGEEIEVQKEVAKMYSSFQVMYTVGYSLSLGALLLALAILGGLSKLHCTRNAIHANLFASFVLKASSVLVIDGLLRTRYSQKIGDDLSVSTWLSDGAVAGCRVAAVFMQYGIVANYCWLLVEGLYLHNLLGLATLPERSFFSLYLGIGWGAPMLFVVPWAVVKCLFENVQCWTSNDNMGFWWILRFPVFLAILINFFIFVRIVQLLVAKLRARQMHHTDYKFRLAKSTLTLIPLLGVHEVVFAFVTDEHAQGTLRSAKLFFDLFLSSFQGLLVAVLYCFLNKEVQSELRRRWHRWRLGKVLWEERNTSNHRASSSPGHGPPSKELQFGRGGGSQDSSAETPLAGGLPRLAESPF

| Binder | GLP1R Internalization EC50 [1] | Internalization % TOP [1] | Relative cAMP EC50 [2] | cAMP Rel EC50, nM (1% HSA) [2] | Relative cAMP EC50 [3] | cAMP Rel EC50, nM (1% HSA) [3] | Relative cAMP EC50 [4] | cAMP Rel EC50, nM (1% HSA) [4] | Relative cAMP EC50, nM (0.1% casein) [2] | Relative cAMP EC50, nM (0.1% casein) [3] | Relative cAMP EC50, nM (0.1% casein) [4] |
| --- | --- | --- | --- | --- | --- | --- | --- | --- | --- | --- | --- |
| B1 | 34.6 nM | 52.4% | 0.228 nM | 52.5 nM | 3.64 nM | 753 nM | 2.33 nM | 440 nM |  |  |  |
| B2 | 32.2 nM | 61.9% | 0.114 nM | 21.5 nM | 1.89 nM | 333 nM | 1.91 nM | 452 nM |  |  |  |
| B3 | 66.4 nM | 45.5% | 0.181 nM | 16.7 nM | 2.34 nM | 306 nM | 6.92 nM | 572 nM |  |  |  |
| B4 | 79.7 nM | 43% | 0.13 nM |  | 1.35 nM |  | 3.74 nM |  |  |  |  |
| B5 | 17.2 nM | 57% |  | 15.6 nM |  | 178 nM |  | 2970 nM | 0.111 nM | 1.11 nM | 14.8 nM |
| B6 | 115 nM | 48.7% |  | 9.86 nM |  | 719 nM |  | 560 nM | 0.142 nM | 9.77 nM | 4.18 nM |
| B7 | 83.1 nM | 41.2% | 0.129 nM |  | 1.78 nM |  | 3.08 nM |  |  |  |  |
| B8 | 124 nM | 41.1% |  | 18 nM |  | 690 nM |  | 1280 nM | 0.107 nM | 5.26 nM | 4.67 nM |
| B9 | 34.4 nM | 31.2% | 0.0909 nM |  | 0.937 nM |  | 1.61 nM |  |  |  |  |
| B10 | 36.1 nM | 27.7% | 0.119 nM | 27.4 nM | 1.3 nM | 223 nM | 2.12 nM | 443 nM |  |  |  |
| B11 | 29.1 nM | 59.3% | 0.127 nM | 32.2 nM | 1.97 nM | 354 nM | 3.08 nM | 763 nM |  |  |  |
| Y[Aib]QGTFTSD[4Pal]S[Dab][αMeL]LDKK([AEEA-γGlu-C18 diacid])AQ[Aib]AFIEYLIE[Aib]GESSGAPPPSGS-NH2 [Example 188] | 44.7 nM | 40.2% |  | 43.8 nM |  | 436 nM |  | 2920 nM | 0.193 nM | 3.43 nM | 10.8 nM |
